Here are results for one protein from article PMC5431903, “Genomic RNA folding mediates assembly of human parechovirus” (Nature Communications, 2017).

This data set concerns the molecule itself. In words: not stated; purified HPeV1 virions heated to 56 °C for 30 min, then 4 °C for 10 days (1x selection buffer: 10 mM Tris-HCl pH 7.7, 150 mM NaCl, 1 mM MgCl2); whole capsids removed by centrifugation; how the pentamers were shown is in Supplementary Fig. 1.

For orientation: stoichiometry N means the number of molecules, sites or subunits per partner or assembly.

B1: HPeV1 (Harris strain) capsid protein protomer of VP0, VP1 and VP3 (complex)
chain 1: METIKSIADMATGVVSSVDSTINAVNEKVESVGNEIGGNLLTKVADDASNILGPNCFATTAEPENKNVVQATTTVNTTNLTQHPSAPTMPFSPDFSNVDNFHSMAYDITTGDKNPSKLVRLETHEWTPSWARGYQITHVELPKVFWDHQDKPAYGQSRYFAAVRCGFHFQVQVNVNQGTAGSALVVYEPKPVVTYDSKLEFGAFTNLPHVLMNLAETTQADLCIPYVADTNYVKTDSSDLGQLKVYVWTPLSIPTGSANQVDVTILGSLLQLDFQNPRVFAQDVNIYDN
chain 2: NSWGSQMDLTDPLCIEDDTENCKQTMSPNELGLTSAQDDGPLGQEKPNYFLNFRSMNVDIFTVSHTKVDNLFGRAWFFMEHTFTNEGQWRVPLEFPKQGHGSLSLLFAYFTGELNIHVLFLSERGFLRVAHTYDTSNDRVNFLSSNGVITVPAGEQMTLSAPYYSNKPLRTVRDNNSLGYLMCKPFLTGTSTGKIEVYLSLRCPNFFFPLPAPKVTSSRALRGDMANLTNQ
chain 3: APNGKKKNWKKIMTMSTKYKWTRTKIDIAEGPGSMNMANVLCTTGAQSVALVGERAFYDPRTAGSKSRFDDLVKIAQLFSVMADSTTPSENHGVDAKGYFKWSATTAPQSIVHRNIVYLRLFPNLNVFVNSYSYFRGSLVLRLSVYASTFNRGRLRMGFFPNATTDSTSTLDNAIYTICDIGSDNSFEITIPYSFSTWMRKTNGHPIGLFQIEVLNRLTYNSSSPSEVYCIVQGKMGQDARFFCPTGSVVTFQ
notes: capsid protein VP0 of human parechovirus 1, Harris strain; cut product of the viral polyprotein, not cleaved into VP2 and VP4; capsid protein VP1 of human parechovirus 1, Harris strain; cut product of the viral polyprotein; capsid protein VP3 of human parechovirus 1, Harris strain; One protomer holds one copy each of VP0, VP1 and VP3; five protomers form the pentameric capsomer, and the capsid is …
In the case of B1, the “stoichiometry N” value was 5.
